Laboratory results as given in patent publication US10081667B2, “Composition and method for therapeutic agent delivery during pregnancy” (University of Mississippi Medical Center, priority 2013, dated 2018).

Experiments:
[1] = test system: rat model of preeclampsia; assay: Blood pressure in the reduced uterine perfusion (RUPP) rat model of preeclampsia; type: in vivo, rats; details: 1 mg/kg/day IP minipump GD14 to GD19, measured GD19
Method: FIG. 13 is a bar graph showing effect of ELP-VEGF on blood pressure in the reduced uterine perfusion model. A study was conducted in pregnant rats subjected to surgical reduction of uterine blood flow (RUPP) on gestational day 14 (GD14). ELP-VEGF or saline control was administered by continuous infusion via IP minipump from GD14 to GD19 at a dose of 1 mg/kg/day. Data represent the mean arterial pressure as assessed by indwelling carotid catheters on GD19. Individual animal data are indicated by the points.
Whether ELP-VEGF was effective for lowering blood pressure in a rat model of preeclampsia is texted next. Pregnant rats at gestational day 14 (GD14) were subjected to surgery to reduce ale blood flow to the placentas. It has previously been shown that this model, achieved by partially restricting the ovarian arteries and the dorsal aorta, results in a preeclampsia-like syndrome in the rat. The effects mirror human preeclampsia in that the rats develop hypertension, proteinuria, reduced renal function, fetal growth restriction, and some fetal loss. […] The hypertension associated with this model can be seen in FIG. 13, where the mean arterial pressure increased from about 105 mmHg in normal pregnant rats on GD19 to over 120 mmHg in the preeclampsia model as measured by a pressure transducer inserted into a carotid arterial catheter.

[2] = ELP-VEGF pharmacokinetics and biodistribution in mice after bolus IV; type: in vivo, C57/B16 mice
Method: FIG. 12 includes graphs showing ELP-VEGF pharmacokinetics and biodistribution. FIG. 12A. Fluorescently labeled free VEGF or ELP-VEGF were administered by IV injection to C57/B16 mice. Plasma levels were determined by direct fluorescence quantitation and fit to a two-compartment pharmacokinetic model. FIG. 12B. […] FIG. 12D.
In addition to examining the ELP-VEGF activity in vitro, the pharmacokinetics (PK) and biodistribution of ELP-VEGF in comparison to free VEGF121 is also determined. Both free VEGF121 and ELP-VEGF were fluorescently labeled, and their PK and biodistribution were determined in mice after bolus intravenous administration. […] This is consistent with other reports of approximately a 30 minute half-life for recombinant VEGF in humans. ELP-VEGF cleared more slowly than free VEGF121 (FIG. 12A). […] Four hours after the infusion, the biodistribution was determined by ex vivo whole organ fluorescence imaging.

[3] = test system: human umbilical vein endothelial cells (HUVECs); assay: HUVEC proliferation, MTS cell proliferation assay; type: cell-based; details: 72 h exposure
Method: FIG. 9 is a bar graph showing ELP-VEGF stimulation of HUVEC proliferation. HUVEC cell proliferation was determined after 72 h exposure to ELP, VEGF, or ELP-VEGF at the indicated concentrations using the MTS cell proliferation assay.
Proliferation of human umbilical vein endothelial cells (HUVECs) is stimulated when the cell are exposed to VEGF.

endothelin-1 = assay: Endothelin-1 release by HUVECs, ELISA; type: cell-based, human
Method: FIG. 15 includes a graph illustrating the inhibition of endothelin release by SynB1-ELP-p50. HUVECs growing in 24-well plates were treated with 50 μM SynB1-ELP or SynB1-ELP-p50 overnight, then 50 or 100 ng/mL […]. Cells were incubated overnight, and culture media was collected and frozen.
TNFα stimulation also leads to the secretion of the vasoactive peptide endothelin-1 by HUVECs. This endothelin release contributes to the hypertension associated with the pro-inflammatory environment in preeclampsia.

[4] = rat, in vivo
NF-κB = assay: In vitro NF-κB activation assay: nuclear localization of NF-κB in TNFα-stimulated HUVECs; type: cell-based, human; details: 20 μM pretreatment 24 h, TNFα 1 h
Method: FIG. 14 includes images and a bar graph illustrating inhibition of NF-κB activation with an ELP-delivered p50 peptide. FIG. 14A. Localization of NF-κB in HUVEC cells before and after TNFα stimulation. HUVECs were treated with SynB1-ELP control or SynB1-ELP-p50 (20 μM) for 24 h. Cells were then stimulated for 1 h with TNFα, and NF-κB localization was determined by immunostaining for the p65 subunit (green) and for nuclei with DAPI (blue). FIG. 14B. The nuclear cytoplasmic ratio of NF-κB staining was determined under each treatment condition. Data represent the mean of 30-60 cells per treatment and are averaged over three experiments.
This investigation has developed an ELP-fused peptide inhibitor of activated NF-κB. NF-κB activation upon extracellular signaling is mediated by phosphorylation and release of the natural inhibitor I-κB from the NF-κB p50/p65 heterodimer. I-κB release exposes a nuclear localization sequence (NLS) on the p50 subunit of NF-κB, and once exposed, this NLS mediates nuclear import of NF-κB. Once inside the nucleus, NF-κB binds to response elements on its target genes and regulates gene expression. […] Stimulation of cultured HUVECs with TNF-α leads to rapid activation of the NF-κB pathway, and this can be detected by monitoring nuclear localization of NF-κB (FIG. 14A, left panel).

B1: ELP-VEGF: ELP sequence (SEQ ID NO: 4) fused to a C-terminal VEGF121 sequence, SEQ ID NO: 14; 73 kDa protein (protein)
chain: MSKGPGVGVPGAGVPGGGVPGAGVPGGGVPGAGVPGGGVPGAGVPGGGVPGAGVPGGGVPGAGVPGGGVPGAGVPGGGVPGAGVPGVGVPGAGVPGGGVPGAGVPGGGVPGAGVPGGGVPGAGVPGGGVPGAGVPGGGVPGAGVPGGGVPGAGVPGGGVPGAGVPGVGVPGAGVPGGGVPGAGVPGGGVPGAGVPGGGVPGAGVPGGGVPGAGVPGGGVPGAGVPGGGVPGAGVPGGGVPGAGVPGVGVPGAGVPGGGVPGAGVPGGGVPGAGVPGGGVPGAGVPGGGVPGAGVPGGGVPGAGVPGGGVPGAGVPGGGVPGAGVPGVGVPGAGVPGGGVPGAGVPGGGVPGAGVPGGGVPGAGVPGGGVPGAGVPGGGVPGAGVPGGGVPGAGVPGGGVPGAGVPGVGVPGAGVPGGGVPGAGVPGGGVPGAGVPGGGVPGAGVPGGGVPGAGVPGGGVPGAGVPGGGVPGAGVPGGGVPGAGVPGVGVPGAGVPGGGVPGAGVPGGGVPGAGVPGGGVPGAGVPGGGVPGAGVPGGGVPGAGVPGGGVPGAGVPGGGVPGAGVPGVGVPGAGVPGGGVPGAGVPGGGVPGAGVPGGGVPGAGVPGGGVPGAGVPGGGVPGAGVPGGGVPGAGVPGGGVPGAGVPGVGVPGAGVPGGGVPGAGVPGGGVPGAGVPGGGVPGAGVPGGGVPGAGVPGGGVPGAGVPGGGVPGAGVPGGGVPGAGVPGVGVPGAGVPGGGVPGAGVPGGGVPGAGVPGGGVPGAGVPGGGVPGAGVPGGGVPGAGVPGGGVPGAGVPGGGVPGAGVPGWPGSGAPMAEGGGQNHHEVVKFMDVYQRSYCHPIETLVDIFQEYPDEIEYIFKPSCVPLMRCGGCCNDEGLECVPTEESNITMQIMRIKPHQGQHIGEMSFLQHNKCECRPKKDRARQEKCDKPRR
modifications: synthetic ELP-VEGF sequences
notes: 73 kDa protein
[1]
  mean arterial pressure: effectively lowered the blood pressure of the preeclampsia-induced rats to near normal levels
[2]
  fluorescence in the urine at the end of the experiment: less fluorescence detectable in the urine
[2]; IV
  plasma clearance rate relative to free VEGF121: about half the rate of free VEGF121
[2]; four hours after the infusion
  kidney deposition relative to free VEGF121: significantly lower than for free VEGF121
  organ accumulation, ex vivo whole organ fluorescence imaging: accumulated more highly in the spleen and liver than did free VEGF121
[3]
  stimulation of HUVEC proliferation: stimulated HUVEC proliferation with equal potency

B2: SynB1-ELP-p50: SynB1 peptide fused to N-terminus of ELP (SEQ ID NO: 4), p50 peptide at the C-terminus; SEQ ID NO: 15 (protein)
chain: MRGGRLSYSRRRFSTSTGRGCGPGVGVPGAGVPGGGVPGAGVPGGGVPGAGVPGGGVPGAGVPGGGVPGAGVPGGGVPGAGVPGGGVPGAGVPGGGVPGAGVPGVGVPGAGVPGGGVPGAGVPGGGVPGAGVPGGGVPGAGVPGGGVPGAGVPGGGVPGAGVPGGGVPGAGVPGGGVPGAGVPGVGVPGAGVPGGGVPGAGVPGGGVPGAGVPGGGVPGAGVPGGGVPGAGVPGGGVPGAGVPGGGVPGAGVPGGGVPGAGVPGVGVPGAGVPGGGVPGAGVPGGGVPGAGVPGGGVPGAGVPGGGVPGAGVPGGGVPGAGVPGGGVPGAGVPGGGVPGAGVPGVGVPGAGVPGGGVPGAGVPGGGVPGAGVPGGGVPGAGVPGGGVPGAGVPGGGVPGAGVPGGGVPGAGVPGGGVPGAGVPGVGVPGAGVPGGGVPGAGVPGGGVPGAGVPGGGVPGAGVPGGGVPGAGVPGGGVPGAGVPGGGVPGAGVPGGGVPGAGVPGVGVPGAGVPGGGVPGAGVPGGGVPGAGVPGGGVPGAGVPGGGVPGAGVPGGGVPGAGVPGGGVPGAGVPGGGVPGAGVPGVGVPGAGVPGGGVPGAGVPGGGVPGAGVPGGGVPGAGVPGGGVPGAGVPGGGVPGAGVPGGGVPGAGVPGGGVPGAGVPGVGVPGAGVPGGGVPGAGVPGGGVPGAGVPGGGVPGAGVPGGGVPGAGVPGGGVPGAGVPGGGVPGAGVPGGGVPGAGVPGVGVPGAGVPGGGVPGAGVPGGGVPGAGVPGGGVPGAGVPGGGVPGAGVPGGGVPGAGVPGGGVPGAGVPGGGVPGAGVPGWPGSGGVQRKRQKLMP
modifications: synthetic SynB1-ELP-p50 sequence
endothelin-1; 50 μM
  endothelin release from unstimulated HUVECs: decreases the endothelin release from unstimulated HUVECs
endothelin-1; 50 μM pre-treatment overnight
  endothelin release from TNFα-stimulated HUVECs: the endothelin release is completely blocked
[4]
  entry into fetal circulation / pups: effectively prevents the peptide from entering the fetal circulation
  terminal half-life (in words): greater than two hours
NF-κB
  nuclear translocation of NF-κB after TNF-α stimulation: completely blocks this nuclear translocation of NF-κB
